{
  "source": "the DeepSol protein solubility set",
  "data": [
    {"assay": "soluble on expression in E. coli; label from the status in PepcDB or PDB records", "values": [
      {"sequence": "MTGVGTPSPSLEWRRRVMSWTDERVSTLKKLWLDGLSASQIAKQLGGVTRNAVIGKVHRLGLSGRAAPSQPARPAFKAPRPARPAAQAMPSAPRRVTPVEAPTSVPVAAAPAPLPAFRHEEPGSATVLTLGAHMCKWPIGDPSSEGFTFCGRRSSEGPYCVEHARVAYQPQQTKKKSGGAELARSLRRYILEHHHHHH", "soluble on expression in E. coli": "not soluble"},
      {"sequence": "MTGWGDHDSLYINPYENRNKLRTYSEYFPIVEVDSSFYAMQPARNYTKWAMETPKDFSFIVKAYQGMTGHMKGEIPFSTFDEMFDVYKQSILPLIEAGKLKTILFQYPPWFDCKKKNVDFLRYTKEKMEGLPCAIEFRNQTWFYPEMRDRTLQFLEQEKWIHTICDEPQAGIGSVPLVLEVTNSDMALIRFHGRNVHGWLDKGENWRAVRCLYRYNNKELEEWVERLEQLKKKTKDIYVLFNNNSGGDAADNAKQLMKMMNITYGEPKPEQLNFFE", "soluble on expression in E. coli": "not soluble"},
      {"sequence": "MTHDNIDILVVDDDISHCTILQALLRGWGYNVALANSGRQALEQVREQVFDLVLCDVRMAEMDGIATLKEIKALNPAIPVLIMTAYSSVETAVEALKTGALDYLIKPLDFDNLQATLEKALAHTHSIDAETPAVTASQFGMVGKSPAMQHLLSEIALVAPSEATVLIHGDSGTGKELVARAIHASSARSEKPLVTLNCAALNESLLESELFGHEKGAFTGADKRREGRFVEADGGTLFLDEIGDISPMMQVRLLRAIQEREVQRVGSNQIISVDVRLIAATHRDLAAEVNAGRFRQDLYYRLNVVAIEVPSLRQRREDIPLLAGHFLQRFAERNRKAVKGFTPQAMDLLIHYDWPGNIRELENAVERAVVLLTGEYISERELPLAIASTPIPLGQSQDIQPLVEVEKEVILAALEKTGGNKTEAARQLGITRKTLLAKLSR", "soluble on expression in E. coli": "soluble"},
      {"sequence": "MTHLGGKVRSSGFLIPGSAPVSGTPPQGQGGLASSRVYEDSGGSLLSFSPMIHPNLAPLIAPSAYARLNLLNHCIFLEAFKEENSGQGLGGVQREVLFLKRDIIKQVIARIVAADSTLDLVNHGEPGREAPRRAQ", "soluble on expression in E. coli": "not soluble"},
      {"sequence": "MTHQKRLSVPKSWKVGRKGNKWISTTRPGPHSQARSLPLGLIIRDVLKLVDNNREGKRILSEGKVLVDGISRKDLRFPVGLFDVITLPLVNEAYRMLQDEKGRLVLYKLNETNVNKLCRINNKTTVKGGKIQLNLNDGTNILGSNDYGTKDSLILSIPDKHVVKHLKFEVGNLAMVIGGQHSGETGKIMEIREVKSSRHNTVMISGETDFETIEDYVIVIGEDKPEIRLGGEISELEHHHHHH", "soluble on expression in E. coli": "soluble"},
      {"sequence": "MTIDLNAMLAKRAEVLGEGNKFDVKLGNKTFYFVAPELASSEWNDRHQAFLEDIRDGLMTSATAREEFLGLALEDQAEEFAEAADNIGVDPFIIAQMAFQEHAEYVGKTQSQKSLNRTQRRAKQR", "soluble on expression in E. coli": "not soluble"},
      {"sequence": "MTIIGNPEIGLYTGKLPKGCELCRLGGKLVLFITGECDDNCYYCPVSDDRFGKNKIFANETEVNNSMDVIYEAYRMKALGAGITGGDPILEIGRVIEIIEELKNEFGYDFHIHLYTTGRYVNDDIMRELVNAGLDEMRFHPVKELYLNAVKVALKYDIDIGLELPAIPNEKDKIVRLIKWAEENNVKFVNLNELELNSRNYLNLNSKGFHAKHGITGVEGSFETALDVLKKFEDNKKITVHYCSSIYKDLVETRTRFFRIIKYSSKPYEEYTNEATVVRAIVKTKGEIPILENFGESTGSDEYSISPSIVGDLLNDYTNLINEIYIVEEHPDSRRLRVGEKLIYSKSKNS", "soluble on expression in E. coli": "not soluble"},
      {"sequence": "MTIKTTMGILAGKASHFVLSKLGRGSTLPGKIALKFDKDILDTLAKDYEIVVVTGTNGKTLTTALTVGILKEAYGEIVTNPSGANMITGITSTFLTAKRAKSGKKIAVLEIDEASLPKITEYITPSLFVFTNIFRDQMDRYGEIYTTYQMILDGAAKAPAATILANGDSPLFNSKELVNPVRFYGFDTEKHAPELTHYNTEGIVCPKCESILQYHLNTYANLGDYVCLNCDFHRPELDYKLTQLTKITNTTSEFIIDGQDYKINVGGLYNIYNALAAVSVAEFFGVVPEQIKAGFDKSRAIFGRQETFKIGDKSCTLVLIKNPVGASQALDMIKLADYPFSLSVLLNANYADGIDTSWIWDANFESILDMDIPEINAGGVRHSEIARRLRVTGYPEDKITQAEKLEDIMTLIEKQDCDHAYILATYTAMLEFRDILAQRHAVGKGMN", "soluble on expression in E. coli": "not soluble"},
      {"sequence": "MTINEPLLSPLEQVVRNIEQVIVGKRNVIVLSLTALLAKGHVLLEDVPGVGKTMLVRALAKSFSAELKRIQFTPDLLPSDVIGVSVYNPKTQQFEYKPGPIVAHIVLADEINRTSPKTQSALLEAMEEGSVTVDGVTRALPQPFFVMATQNPIEYEGTYPLPEAQLDRFLLKLHMRYPSPDEEIEMLNRLEKTAPLAEIGPVMSLDELLALQRKVADVHVSDTVKRYIVDLIQQSRQHEAVYLGVSPRGSVALMKAAQAYAFIHGRDFVIPDDVQQLAPYVLAHRLLVRPEAKWDKFDAETIIGQLIARTPVPVPGRR", "soluble on expression in E. coli": "not soluble"},
      {"sequence": "MTIPLPGLEVRGSKTGKPIMALLDLLGRTWSLGIIWNLHSGPATFRELQQRCEKISPTLLNTRLKELKTLQLVECQEAGYQLTHQGLDLFDIISPLGSWSSQWAQGLKEDSK", "soluble on expression in E. coli": "not soluble"},
      {"sequence": "MTKDQRRSLTKKALLDALVICLKDQDFNEITTIRLVQTAGISRSSFYTHYKDKFEMIDSYQKELFHKLEYIFDKYEGKKEGAFLEIFEILTREKLLSALLSTNGAKEIQDFLINKLQRMIAKDFIDPTAEKRALKGFEKDYASIYLAHAIFGACQAWIKNGKKESPQEMTDFLLRFIPQ", "soluble on expression in E. coli": "not soluble"},
      {"sequence": "MTKEEFIKQKEQRKTFLVIAEEEGDSITPISLYRRMKGKKKFLLESSQLHQDKGRYSYLGCNPYGEVKSVGTEVERTIYGRAEKLQSNVLQVLEEIIAPSQVDSPFPFCGGAVGYIGYDVIRQYENIGADLHDPLNIPEVHLLLYREFIVYDHLRQKLSFVYVCREDDSADYEEVYERLRVYKEEVLQGEEAEVTEIRSTLSFTSSITEREFCVMVETAKEHIGAGDIFQVVLSQRLQSECIGDPFALYRKLRIANPSPYMFYIDFQDYVVLGSSPESLLSVREDKVMTNPIAGTRPRGKTKEEDTEIEKELLENEKERAEHMMLVDLGRNDIGRVSEIGSVTIDKYMKVEKYSHVMHIVSEVYGTLRKQMSGFDALAYCLPAGTVSGAPKIRAMEIINELENEKRNVYAGAVGYVSFSGNLDMALAIRTMVVKDEKAYVQAGAGIVYDSDPVAEYEETLNKARALLEVMK", "soluble on expression in E. coli": "not soluble"},
      {"sequence": "MTKFDLNDSSVVVIVGSGAGGGTLGNELAQKGVKVVILEAGPRIENQDFINDEWESFSQLAWTDARTTSGTWRVAKDFSGLPAWIVKAVGGSTVHWAGASLRFDEHEFRVKSAYGNIPGANLLDWPVTLAEMEPWYAKAENKMGVTRTNGIPGLPGNNNFKVLEAGAKKLGYKTVHTGNMAINSQPRDGRGSCQQIGFCFQGCKSGAKWSTLYTEIPKGEATGNLEVRPSSMAVKIEHDAGGKVTGVVYADEAGAMQRQKARIVAVAGNSIESPRLLLNSASTMFPDGLANSSGQVGRNYMRHMTGSVYAVFEKSVHMYRGTTMAGIIRDEAANNPKRGFVGGYEMETLSIGLPFMAAFLNPGAWGRPFTSALDGYPRMAGMWLVGEDMPQETNRITLDPVVKDKFGQPVASVHFDDHPNDIAMRAHAYKQGAAVYDAVGATVTYPTPPYPSTHNLGTNRMSEKPRDGVVNKFGQSHDVKNLFVSDGSQFTSGAACNPTLTIVALAIRQADYIAGAMQKKEILEHHHHHH", "soluble on expression in E. coli": "not soluble"},
      {"sequence": "MTKFNWHESAEKKWDSSAEFWNQNSQEMWDSGSRSTIIPFFEQYVKKEAQVLDVGCGDGYGTYKLSSAGYKAVGVDLSEVMIQKGKERGEGPNLSFIKGDLSALPFENEQFESIMAINSLEWTEEPLRALNEIKRVLKKDGYACIAILGPTAKPRENSYLRLYGKDVVCNTMMPWEFEQLAKEQGFKVIDGIGVYKRGVNEKMLGQLPTELQQSLTFLWVFMLKNV", "soluble on expression in E. coli": "not soluble"},
      {"sequence": "MTKIGINGFGRIGRNVFRAALNNSEVEVVAINDLTDAKTLAHLLKYDTVHGTLNAEVSANENSIVVNGKEIKVIAERDPAQLPWSDYGVEVVVESTGRFTKKSDAEKHLGGSVKKVIISAPASDEDITVVMGVNHEQYDAANHNVVSNASCTTNCLAPFAKVLNEKFGVKRGMMTTIHSYTNDQQILDLPHKDLRRARAAAENMIPTSTGAAKAVALVLPELKGKLNGGAVRVPTANVSLVDLVVELDKEVTVEEVNAAFKAAAEGELKGILGYSEEPLVSIDYNGCTASSTIDALSTMVMEGNMVKVLSWYDNETGYSNRVVDLAAYMTSKGL", "soluble on expression in E. coli": "soluble"},
      {"sequence": "MTKLAVVGATGLVGTKMLETLNRKNIPFDELVLFSSARSAGQEVEFQEKTYTVQELTDARASEHFDYVLMSAGGGTSEHFAPLFEKAGAIVIDNSSQWRMAEDIDLIVPEVNEPTFTRGIIANPNCSTIQSVVPLKVLQDAYGLKRVAYTTYQAVSGSGMKGKKDLAEGVNGKAPEAYPHPIYNNVLPHIDVFLENGYTKEEQKMIDETRKILNAPDLKVTATCARVPVQDSHSVEIDVTLDKETTAEDIKALFDQDDRVVLVDNPENNEYPMAINSTNKDEVFVGRIRRDDSLENTFHVWCTSDNLLKGAALNAVQVLEQVMRLKGAN", "soluble on expression in E. coli": "soluble"},
      {"sequence": "MTKLTIFYDGTCPLCAKEMKALRQHDHKQEINTVDIYSDAFSAYPQINPDRANTILHALDNQGNLLLGLDVTYRAWQLVGRGWLYAPLRWPLIRPVADWLYLRFAQNRYRISYWLTGTSRCNSGRCSRLEHHHHHH", "soluble on expression in E. coli": "soluble"},
      {"sequence": "MTKNDNTIFKDIYQLWFTQYKQTVKESTWVTTQRLFRLHILPIFSDYRIAKISIKDCQKAINQWFNAGLAKYHTLMNYVAKVLDYAINIDLISENPAKRVIVPVNKNDRSLEHHHHHH", "soluble on expression in E. coli": "soluble"},
      {"sequence": "MTKRGPDDLQLSLRNGVGGASTTAPGVAAAAYYANVMTADSEPKKAKLDPTLYSSQFYTPAMHHGLMTADASTVAAVTAAANATTAQLLTGNPITQIQGIQLSTLPQCNSTSAVTSIPVSKVVHVRNIPPDLVDVELMQLCIQYGPVSNYMMLKGKSQAFVEYEEEASAAAFVSGMTAVPIQIRGRTLFAQYSTHRELKFDKNKAISDTESVANGSVSNFEVGTQQQPNSVLRTIIENMMFPVSLDVLYQLFTRYGKVLRIITFNKNNTFQALVQMSEANSAQLAKQGLENQNVYNGCCTLRIDYSKLSTLNVKYNNDKSRDYTNPNLPAGEMTLEQTIAMSIPGLQNLIPANPYNFAFGANPATTFLTTQLAASTAAAAAVNDSANAAALAPYLNPLGLTSANLAPSISSMRFPMINLTPVILVSNLHEMKVTTDALFTLFGVYGDVMRVKILYNKKDNALIQYSEPQQAQLALTHLDKVKWHDRLIRVAPSKHTNVQMPKEGQPDAGLTRDYAHSTLHRFKKPGSKNYLNIYPPCATLHLSNIPTSVSEEKLKEMFAEAGFAVKAFKFFPKDHKMALCQLEDIETAIDALIAMHNHKLAENAHLRVSFSKSGI", "soluble on expression in E. coli": "not soluble"},
      {"sequence": "MTKSLPGVADLRLGANHPRMWTRRVQGTVVNVGVKVLPWIPTPAKRILSAGRSVIIDGNTLDPTLQLMLSTSRIFGVDGLAVDDDIVASRAHMRAICEAMPGPQIHVDVTDLSIPGPAGEIPARHYRPSGGGATPLLVFYHGGGWTLGDLDTHDALCRLTCRDADIQVLSIDYRLAPEHPAPAAVEDAYAAFVWAHEHASDEFGALPGRVAVGGDSAGGNLSAVVCQLARDKARYEGGPTPVLQWLLYPRTDFTAQTRSMGLFGNGFLLTKRDIDWFHTQYLRDSDVDPADPRLSPLLAESLSGLAPALIAVAGFDPLRDEGESYAKALRAAGTAVDLRYLGSLTHGFLNLFQLGGGSAAGTNELISALRAHLSRV", "soluble on expression in E. coli": "soluble"},
      {"sequence": "MTKTSKASGLSWFFCDLDGTLLRYQNNQHLIEPTTKRAVAQLVESGANFVVATGRKPSDVRNIYKELGIEQASPYLIANNGAVVWDLKRNSYLNKQTLSLSDFDLIDHINQTLNQLNHEYGCILYGLNDQVYFYHIHAPDSQAFKQYFAFYEGEFVQNQYLEIDGLKTEYNLVKAIWFFKEVHQQKAVIAQHFTNQERLVITSAHSFELVPLNVSKGHAINLIKQQVKITDNQIMVLGDSYNDLPMFQHGVVKVTNHLAPDNLKQLATRVYELPASLFVGQALNDYFKFD", "soluble on expression in E. coli": "not soluble"}
    ]}
  ]
}
